13 molecules from paper PMC4320627, “Transcription factor MrpC binds to promoter regions of hundreds of developmentally-regulated genes in Myxococcus xanthus” can be followed below.

First the molecules themselves.
T1: His10-MrpC2 (Myxococcus xanthus, UniProt Q1D244 26-248)
T1 sequence: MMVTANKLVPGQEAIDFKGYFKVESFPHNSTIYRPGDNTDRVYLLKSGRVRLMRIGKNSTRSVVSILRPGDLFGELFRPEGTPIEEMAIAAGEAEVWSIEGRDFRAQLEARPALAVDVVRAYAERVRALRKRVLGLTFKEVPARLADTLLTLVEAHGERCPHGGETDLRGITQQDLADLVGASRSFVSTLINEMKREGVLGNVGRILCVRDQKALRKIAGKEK

T2: FruA-His6 (Myxococcus xanthus) (UniProt Q1D7Q3)
T2 sequence: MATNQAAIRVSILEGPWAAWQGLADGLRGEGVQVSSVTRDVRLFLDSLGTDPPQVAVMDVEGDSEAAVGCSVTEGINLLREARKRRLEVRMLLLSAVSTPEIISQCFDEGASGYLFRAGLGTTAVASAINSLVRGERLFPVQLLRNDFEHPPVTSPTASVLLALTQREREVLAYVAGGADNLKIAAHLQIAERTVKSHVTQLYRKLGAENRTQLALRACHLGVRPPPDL

B1: MXAN_0524 probe B (dsDNA)
DNA 1: CACAGTCAACGTTTCTCCATCCAGCCCACCTGTCCTCCAC
DNA 2: GTGGAGGACAGGTGGGCTGGATGGAGAAACGTTGACTGTG
B2: MXAN_0524 probe C (dsDNA)
DNA 1: CATCCAGCCCACCTGTCCTCCACTGAACACGTACTGGCAC
DNA 2: GTGCCAGTACGTGTTCAGTGGAGGACAGGTGGGCTGGATG
B3: MXAN_0524 probe A (dsDNA)
DNA 1: CCGTCCCAACAACTGATACACAGTCAACGTTTCTCCATCC
DNA 2: GGATGGAGAAACGTTGACTGTGTATCAGTTGTTGGGACGG

For the first data set, the target named is T1, His10-MrpC2. As to the kind of experiment: EMSA; 1 uM protein; EMSA, 2 nM 32P-labeled DNA, 25 C, 15 min; buffer as in cited ref 127 (not given). The conditions noted are these: protein: recombinant; tags: N-terminal His10; chain copies: 2; label: 32P; blunt. A general note: A gel shift assay detects complexes by their altered migration in electrophoresis.
With B1, the binding result is listed as “no binding”.
Still for that read-out and setting: for B2 the value was “binds”; for B3, “binds”.

The next data set deals with T2, FruA-His6 (Myxococcus xanthus). Put plainly: EMSA. Conditions: 2 nM 32P-labeled DNA, 25 C, 15 min, buffer as in cited ref 127 (not given).
As to “CAAGGTGATGATGTGCGTCGAGGCTATCGGCCATGTGCGGGAGCGTCAATGTTCGGACCGGGCGGAATTCCGGCTGCCCGGGGAGCGGGCAAGCGCCGTCACACAGCCGACGTTTCCGTCACTGAGGGTACGTCGGGTACGTCACTGGCTCGACGGAGATGGGCGGCCAGGAGTGCGGCGTGCGCGGCGCGGGCGGGAGCGAATACAGCGGCTCG (double strand) [frzS PCR]”, the binding entry is on record as “no binding”.
For the molecule “CCAGGGAACGTAGAAGTCTGGCAGTTCGAATGGCTGCTTGTTTTTCGCCGTACTCATGGACGCCCCTCGTTGAACTCAGGGGGGCGTTATAGTTAGGCGCTGAACACTTATCCAAGTGTTTCTTGCATAAAAGATTCTCTGGAGAAGTCGCGATTTGCCTGCTGGCGCACGGATTTAGCTCCATCCGTGCGCCGTATTGCTC (double strand) [MXAN_6247 PCR]”, the binding result is recorded as “binds”.
Same read-out and setting: for “CGAGCTCCTGTGAACCGAAGTCATGCTGCTGGTAGGAGCCCGCTGGGTCTGCCCAGACCTCGCCAATGAGGCGCTGGTCCATTAATTGCTCAACGCAACAACTTGCGAAGCAGTCTGTCGGCTACTTGACCGTGCTTGCCAGTGAATGAGAAGTGACGCCTGCGTGCTGACCGTAATGGGACAGGCGGGGACCATGTATATGAGGTGGAAGAAGC (double strand) [MXAN_5802 PCR]” the value was “no binding”; for “CTCGTTTACGAACTCGTCTGGTCCAAGTACCTCGGGAATGTCCTGGGGAACAGCGGCCAGGCGCATGCCGTGGTGCTCGCCACGTTCATGGGAGGGCAAGCGCTGGGCGCATTTGTCTTCGGGCGGACAGCCGACCGGGCAAAGAACCCCCTGGCCCTTTACGGCCTGCTGGAGCTGGGCGTGGGCCTGTACGCGCTGGTCTTC (double strand) [mrpA PCR]”, “binds more weakly”.
The same measure, in the same setting: for “GATTAGCACTACGCATGCCAACCCAGGTGCGCACTCCAAGCCCCCCAATTCTCAAGGCTTGGAACAATCCCCTCGGCGAGGATGGGTCCAGGGCTGACAAAATTCGGCAGTGACGCTGACGATAACTGTCGATCAGCCTACGCATCCGAAGCGCTCCCGGGCTCCAAGTCATCCGTCAGCCCATGCTTGGCCAACCGGTAGCGGAATGAACGGAACGAAAG (double strand) [pilA PCR]” the value was “no binding”; for “GGATTTGCCTTTGCACCTCCAGAACCACCAGTGGGTGAAACAATGTCAACGGGAGTCCTTCGCCACGGCCTTGATTGTCCCTTAGCAAACACAGTGAACCGCACAGCGACAAGGCAGGAATTCGCCCACGCTGGACTCACGGCACGTCGGAAGCATCTCTTGGGAATCAAGAATTGAGTGAGGTCCATCGCCCTGCAATCGATGGCAAAGAG (double strand) [pkn8 PCR]”, “no binding”; for “GGCGAACGGGACTTTCCTTCTCCAAGGTTCGTGCCAGCGGGAATTGAAATGCCGCCGGGACAACACCTCCTGAAATGCCGGGTACTTAGCGCTACAGGCCCGCACCAGAGCCCGTTCTGTGTCCAAAACCTGAAACAGAACGTTCAAACAGTCTGATCAATTTGAACGAAACGTTCAAACCGGGGGCATGAGTGTCGGAGCAG (double strand) [mrpC upstream PCR]”, “no binding”.
Still for that read-out and setting: for “GTACCAACTCGCGCACGTCGGGTGCGGGCAGTCCGTAGCGCTGGCCGTTCAGGGTGAACAGCAGCACCTCCGTGGGTGCGGGGGTCATGTCCTGGGACATAAGACGTGGGCGTGGCCACTGTCGAACATTGATGTCGGCCCGCGGTCGCGGTGTCCACCAGTCCTCAGTGGAGGCAGGAGGAGGGGCCCATGGTTCGGGGGGAACACGACAGGTGCTCGCTGTGC (double strand) [cheW6a PCR]” the value was “binds”.
Take “GTCTTCCTTGTTGATGAGCCCCGGAGGGGCCATCGCGGTGGGCATAGCGCTCGCAGCGGAGCCCTTCTTCTTCTCATCGGACATGAAATTCAGCCTTTTCTCTTCGACAACCAGTGAACATTTCCAGGTTTTCTGCGGCGGATGAACCAACGTAACAACCAAAACGGACATGGCAAACGCAGTGTGCGTTTTTCCGCCCCCCGTCACCTCTCCAGGGTTCCTCGGAAGTC (double strand) [bsgA PCR]”: the binding entry is recorded as “binds”.
Take “GTGGGCATCCACGAAGCGCGCCCCGGACTGGTGCGCCCCCTGCTGTCGTGCACGCGGGAGGAGGTGGTGGCCTTCCTGGCGGAGCAGGGTGTCGCCTATGTGACAGACCCGATGAACACCGACCCTGTCCACTTCCGGACGCGCGTTCGCCTTGGAGTGCTACCCGCCCTGTCGCGCGCCGCTGGCTTCGCGGTGGAGG (double strand) [MXAN_4360 PCR]”: the binding entry is reported as “binds more weakly”.
